The text below walks through data of a protein production outcome set (Wang et al. 2014).

The data set in a line: label from the status in PepcDB records.
Consider “MKGNALCTGEPVMTIETRGGGSEDIAVLPLDPTGNITRLFIRERCNDSSDPECKTGQWRLGSVDISRENTPASTRYAWRPGNNASEDDFEPLGMSLVPGNTPGEGTLFVIDIARPQSVRIWQLDISGGEITKATLATPADTQTGARLTAANSLQAVRNDDSRSFHLTITRFDEYGLLPFRPTPWPALVRINNGVIQPPPAQDFRNANGIIRPCAGCDLVIASYWERRLRFVSKENGEIGEYASAELPIRPDNLRLDGERILIAGQRRVDLTALNLLVSPHIPSPSGVYAIDTRSLGPDTVPTLLWEGGWKHGHSVATAVALPGNRLAIGQINTPGILIADCSPLEHHHHHH”, for which the protein production result is “failed”.

Turning to “SQVDDWIVGLEVEIFTFDGKEYRGIVYTYDADANCVVLARKSQDSLKSDLRILKASLVKNINVLGRSNVDQLPQQLSPLNLEALKMREEQALQKARKDLARTGVGVSQQAQEIFDALCKTLPCQWEEDSIVIFENIKLKKPYRVEDLDEIEAVNRVKVVLENELQKLQRRNT”, the protein production entry is on record as “not failed”.

On to “MNIVIVVFSTDEETLRKFKDIIKKNGFKVRTVRSPQELKDSIEELVKKYNATIVVVVVDDKEWAEKAIRFVKSLGAQVLIIIYDQDQNRLEEFSREVRRRGFEVRTVTSPDDFKKSLERLIREVGSLEHHHHHH”, for which the protein production entry is recorded as “not failed”.

With “LLLTRPDEECAALAASLGEAGVHSSSLPLLAIDPLEETPEQRTLMLDLDRYCAVVVVSKPAARLGLERLDRYWPQPPQQTWCSVGAATAAILEAYGLDVTYPEQGDDSEALLALPAFQDSLRVHDPKVLIMRGEGGREFLAERLRGQGVQVDYLPLYRRRAPDYPAGELLARVRAERLNGLVVSSGQGLQNLYQLAAADWPEIGRLPLFVPSPRVAEMARELGAQRVIDCRGASAPALLAALTSAA”, the protein production result is on record as “failed”.

As to “MKTTIQTITLILGLFISSLAIASPEFPTQEPMGGKTFGHSVKHVGNGIYVFRWWVYRNFFVVTDDGVIVSDPLNPKAAKLLQSEIRKITDKPVKYVVYSHNHHDHISGGNIFKAEGAKFIGHKNLLKQLKDHPSPVLPIPDIVFEDTYTLTLGNRTLELSYFGPNHGDSLVVMRFPKEKILFVVDIVTPRRVAFRGMPDFWPDEWVRSLKEIELMDVDYVISAHGPENQPAIDPASVIKEQRVYIEDLMAAVKLKMDEGVHSPDALRKQVKLPKYEHWQYYEQWLPMNIERIWAYYHMGW”, the protein production result is on record as “failed”.

In the case of “GDGNITTENIPVSEYDCLELEGGGMVVNYTQSDAPEGLEIKTDRNIFEKYEFNVENHKLKIRPKKEFRKHTNFRPTEFMVTANSRNLKKLAAAGSTHVNINSPLQAEEFEAGLAGSGIIQFHDTASFTNLKIEIAGSGDFVGHKVYCEELNGDMAGSNTIVLGGTVGIAEFSIAGSGTVRAFDCTMDELECKIAGSGDIEAFVVNKIKAEIAGSGSVKYKGDPQDIQKKVMGSGKIEKVE”, the protein production entry is “not failed”.

As for “MKKLLLTVIQIALLFIFARLINWVTALLHINIPGSIIGIVILFTLLHFNIIKLEWIELGAAWLLGELLLFFIPSAVGVIEYGDIMSKFGVSILLVVIISTFVVMVSTGTLTQLIAKRKEKKHTCSSEL”, the protein production result is “failed”.

For “MSQHLFTAFILTALAGLSTGIGSLIAFVTKHTNKTFLSVSLGFSAGVMIYVSMIEIFPTAQTILTKAMDKKSGSWLTVLAFFGGILLIAIIDKLIPSEENPHEIKTIEEEDQKPTKLMRMGLMTAIAIGIHNFPEGLATFISGLQDASIAIPIVIAIAIHNIPEGIAVSVPIYQATGSKKKAFTYSFLSGLAEPLGAIIGWFLLMPIMNNIVYGAIFSAVAGIMVFISLDELLPAAEEYGKHHLAIYGVISGMLIMAVSLLLFI”, the protein production entry is “failed”.

In the case of “MAEDQTVLAIDIGGSHVKIGLSTDGEERKVESGKTMTGPEMVAAVTAMAKDMTYDVIAMGYPGPVVHNKPLREPVNLGEGWVGYDYEGAFGRPVRIVNDALMQAIGSYNGGRMLFLGLGTGLGAAMIVENVAQPMEIAHLPYRKGKTYEHYVSEAYREKKGNAKWQKRVQDVVERLSAALEPDEVVIGGGNVERLENLPPKCRRGDNAMAFEGGFRLWKNADLIV”, the protein production entry was “not failed”.

Turning to “AEDPILRAIPENAFDGIAVTDAGGHVVYANSTYLALTGAATMQDVRPVERVFIGNPDVSEAVFRLLKAAREGRRLQEEVRVAGADGTQGRWMRLRVRPLGTSKREARQTVWSIADITRDRERQEDVFQTLQHAIEYLDHAPCGFFSVNPAGNLVYVNATLANWLDH”, the protein production result was “failed”.

As for “LGGVAPEQVAYAVEQAGKRLQERDNAGVKVRPARLTDLDALEGMVAYWAGLGENLPRNRNELVRDIGSFAVAEHHGEVTGCASLYVYDSGLAEIRSLGVEAGWQSQGQGKAIVQHLVEKAREMAIKKVFVLTRVPEFFMKQDFIPTSRSLLPEKVLKDCDQCPRQH”, the protein production result is recorded as “failed”.

For the sequence “MSSLFNVNAQFWASLIDSPLKILVHILDIAIVSWLIYKFIKALAGTKVMSLVQGVVLFVLFKFVAEFLGFTTIAFLMNQVITYGVIAGVVIFAPEIRSGLERFGRTPQSFIQRQQLSDDEKLVAAFVKAVAYMSPRKIGALVSIEETQTLREYIATGIPLDADISGELLINIFIPNTPLHDGAVIVEGNKIAVSCAYLPLSESSHISKEFGTRHRAAIGLSEASDAFTFVVSEETGAISVAYKGDFIHDLSLEAFEVLLREHFIKEEPKKKNWMKQFFGGRHHV”, the protein production entry is reported as “failed”.

On to “MILNILLNLAIFIIPSLAVWNQIILYIFGKSGDIANLILLNNESNLPKLSIIVPTKGERIEVIQGLIDNIHEAIWDRNKLEIIIVSDDEQEYFDKLLSTLIIPPDLDVRIFRREKKLGYKSGALAFGLQKSTGDLILTLDVDARIEKDSLIKAYNHMVNLGCDAITMEWHGYSNISTSLAKALMVSTVLTSKSILRGRDKLGLKVLPIGCGTIYKRSALEAVNGWDYKMIQDDYELGARLINKGFKVCASSSPVYVEVPDNLIAFYVQQTRWAMGTMEVLYWRFKYIISSDIKLWQKLEIIAYLSQYIPIILTFISAIIFAIAGFVGIRLSMNLPMFIIWAITLSIYASIFVNSAKKSGIDTVTAIKALGRLSAYTVGISPFLLIGTINAFKKTRTYIVTPKGKKAKSNIGYPILAFGVFFILSAFLYMFRGDFLTFIWLAYYSIAFLYTFIAYIKGL”, for which the protein production entry is “failed”.

Consider “MSLAILTTAYAKIIGLDFSYRKVSTLPIFTKKEDVILSSSHVQTIIYDPSFIADQNTFYLANPAVVIDYFPSKSHRSGIKFSLETFLAMYYKNIAADALADKDLNKSFLYANKAYQLDTDNIETINLLAVIHRRSGDLQTAEAIYKTGMDKGQTNIALLSNYIMLLKSQRRMDEVNTLQDKLNQLDDPDPYQWLGEAYTAKNVGNIKQAEIYFKKALSKAPYLNQAYMGLYKIYIKQNKLKKAQTMLVKALEWTYELDERKLYKYKLYNIEHNIAAIN”, for which the protein production result is “failed”.

Take “LVEDFERELGRMLSPFELEDLQKTVSDDKTDPDLVRSALREAVFNGKTNWNYIQAILRNWRHEGISTLRQVEE”: the protein production entry was “not failed”.

Turning to “MKHMKTFVIIGLSNLGIHLLEDLSRLDCQIIIIDTSKELIEEYDVISTESFVVEQFTKNALKRIIPVDTDAVVIDFDDDLGKSALVTHYCNLLGLKEICVKTENRDDAEILKTLGATKIIFPSKDAARRLTPLLVSPNLSTYNIIGYDIIVAETVIPKEYVGKTLFEADLRRECGITVIAVRNLSNSRYEFVDGDYFFLKDDKIVICGKPDSIENFTNNKDLIKDLISGSKEDENLNKDAEKKSRFLGIFNFMKIFQKDRKDN”, the protein production result is recorded as “failed”.

On to “KKYSYAVTTCIKHINKNVYDGISLNELANHLEITPTYLSKLFKKEMGITLSEYIQRERVEEAKKLLTLTTYSLSDICAWLNFNDQSYFIRVFKKITSMTPRQYREKYTV”, for which the protein production entry is recorded as “failed”.

With “MAADKLADEVACMANTPGGGALIVGIEDKTGRIIGTELDIDWLRQGIFTRIDVAPDVVAKRVLGQRVLAIYVAAAAEPIEDTSDRLRWRVGDSCRPVDLEHHHHHH”, the protein production entry was “failed”.

With “MLRRALEEAIAQALKEMGVPVRLKVARAPKDKPGDYGVPLFALAKELRKPPQAIAQELKDRLPLPEFVEEAVPVGGYLNFRLRTEALLREALRPKAPFPRRPGVVLVEHTSVNPNKELHVGHLRNIALGDAIARILAYAGREVLVLNYIDDTGRQAAETLFALRHYGLTWDGKEKYDHFAGRAYVRLHQDPEYERLQPAIEEVLHALERGELREEVNRILLAQMATMHALNARYDLLVWESDIVRAGLLQKALALLEQSPHVFRPREGKYAGALVMDASPVIPGLEDPFFVLLRSNGTATYYAKDIAFQFWKMGILEGLRFRPYENPYYPGLRTSAPEGEAYTPKAEETINVVDVRQSHPQALVRAALALAGYPALAEKAHHLAYETVLLEGRQMSGRKGLAVSVDEVLEEATRRARAIVEEKNPDHPDKEEAARMVALGAIRFSMVKTEPKKQIDFRYQEALSFEGDTGPYVQYAHARAHSILRKAGEWGAPDLSQATPYERALALDLLDFEEAVLEAAEERTPHVLAQYLLDLAASWNAYYNARENGQPATPVLTAPEGLRELRLSLVQSLQRTLATGLDLLGIPAPEVM”, the protein production result is “not failed”.

As for “MQDIHFRRHYVRHLPKEVSQNDIIKALASPLINDGMVVSDFADHVITREQNFPTGLPVEPVGVAIPHTDHKYVRQNAISVGILAEPVNFEDMGGEPDPVPVRVVFMLALGESNKQLNVLGWIMDVIQDEDFMQQLLVMNDDEIYQSIYTRISERGEV”, the protein production result is recorded as “not failed”.

In the case of “MEVNKPLPLISIIVPIYNIAEYASECIQSLINQTYKNIEIILVDDGSTDHSPAICDEFAEQDERIKVIHKRNGGLSDARNAGLDVATGEYIGFVDGDDWVDEDMYETLYHLIYEHQADISICTHYTELPNRTKVKYKSKKTKIFSSQKAIATLIEDKIIQNYIWEKLFKRELFTELRFPVGWSFEDIALCYKVFHKARKIVLLQTPKYHYRTRPGSITNSTRNPLKEFQYLQALHEQFQFAAENNIKVRKPKKLVQKTFHFINHIIILPPSSLKKKYINDAFEIAHTYDYLRNWEIGVAATLRRFFVYNYFNAYASVIITYRKYIPARTVKSTTEFFFVRRVATSLATAMRSILYILEHHHHHH”, the protein production result is given as “failed”.

Regarding “MKFFFLLQIALILLSNSSLLFGQSPPKEKEDSLLLYKEGKFKEAILNTLEEIRLNPSNLDARTILIWSLIAIGEYKRAEKEAIIGLGIKKHDIRIIQALGEAYFFQKNYDNALKYFQEYISLDSKGARIIKVYNLIADSFYELKRYNEADFAYEHALRFSPNNQNLLIKLARSRINAKNKILAEEALIKILTISPNNLEAKNLLEELKKSNNKP”, the protein production entry is on record as “failed”.

Regarding “ETDKTAISVREIADNTYIVLGTMTLNDFNEYFETDLESDNVDTIAGFYLTGVGTIPSQEEKEHFEVESNGKHLELINDKVKDGRVTKLKILVSE”, the protein production result is “failed”.

On to “MQIGKVTGSLWATRKDEKLNGLKLLLVEITDEVEDKRHSIVAADNAGAGNGDLVLVTTGSAARASTGDNTIPVDACIVGIIDSVERYGLEHHHHHH”, for which the protein production entry is given as “failed”.

In the case of “MPTLIVLIGPTGVGKTELSLRLAENFHTSIVSADSRQLYAELKIGTAAPTPDQLKRVPHYLVGTLHLTDYYSAAQYEQEAMEILHQLFTEHEVVVLTGGSMMYVDAICKGIDDIPTVDAETRQVMLQKYEEEGLEQLCAELRLLDPDYYRIVDLKNPKRVIHALEICYMTGKTYTSFRTQQKKERPFRILKIGLTRDREELYDRINRRVDQMMEEGLLDEVRSVLSYRHLNSLNTVGYKELFKYLDGEWELPFAIEKIKQNSRIYSRKQMTWFKRDEEIRWFHPEQETEILEYLRLQNLTHLPSLDTFLEHHHHHH”, the protein production result was “not failed”.

Turning to “MILKRAYDVTPQKISTDKVRGVRKRVLIGLKDAPNFVMRLFTVEPGGLIDRHSHPWEHEIFVLKGKLTVLKEQGEETVEEGFYIFVEPNEIHGFRNDTDSEVEFLCLIPKEGGE”, the protein production result is reported as “not failed”.
